We go through one substance from patent US8974774.

This experiment addresses carcinoembryonic antigen (human) (UniProt P06731).
Chain of UniProt P06731 (P06731 35-702): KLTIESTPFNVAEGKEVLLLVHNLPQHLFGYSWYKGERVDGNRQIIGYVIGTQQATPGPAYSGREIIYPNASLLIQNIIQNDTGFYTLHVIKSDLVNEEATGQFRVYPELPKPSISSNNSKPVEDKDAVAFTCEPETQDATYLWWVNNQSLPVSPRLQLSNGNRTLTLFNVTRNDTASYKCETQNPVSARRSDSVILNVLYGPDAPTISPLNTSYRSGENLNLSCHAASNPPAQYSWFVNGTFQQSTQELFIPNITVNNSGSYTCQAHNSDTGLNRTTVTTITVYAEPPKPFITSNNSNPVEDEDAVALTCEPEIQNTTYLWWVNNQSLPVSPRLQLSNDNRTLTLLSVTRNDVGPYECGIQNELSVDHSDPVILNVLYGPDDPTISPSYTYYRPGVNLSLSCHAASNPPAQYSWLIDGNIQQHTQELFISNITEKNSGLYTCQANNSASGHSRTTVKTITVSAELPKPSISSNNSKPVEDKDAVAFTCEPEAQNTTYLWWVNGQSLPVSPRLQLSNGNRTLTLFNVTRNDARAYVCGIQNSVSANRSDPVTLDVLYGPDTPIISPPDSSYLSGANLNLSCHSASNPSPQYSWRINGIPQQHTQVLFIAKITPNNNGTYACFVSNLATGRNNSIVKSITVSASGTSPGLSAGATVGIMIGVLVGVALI

With “Monoclonal antibody to carcinoembryonic antigen (CEA; clone CD66e, US Biological) covalently conjugated to anionic polyaspartate (3K MW)”, the percent of colon carcinoma cells positive for fluorescein signal was determined as 87.6%.
